{"source": "patent US20260217863", "key": {"[1]": {"biological_target": "T1, Fv-2, expressed soluble Fv antibody of clone 23 (His-tag-TdTomato-VH)", "T1 chain": "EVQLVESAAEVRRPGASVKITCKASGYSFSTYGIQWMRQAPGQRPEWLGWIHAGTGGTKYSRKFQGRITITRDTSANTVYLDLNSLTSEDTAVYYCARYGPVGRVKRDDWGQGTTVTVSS"}, "[2]": {"biological_target": "Fv-3, expressed soluble Fv antibody of clone 39 (His-tag-TdTomato-VH)"}, "[3]": {"biological_target": "T2, Fv-1, expressed soluble Fv antibody of clone 5 (His-tag-TdTomato-VH)", "T2 chain": "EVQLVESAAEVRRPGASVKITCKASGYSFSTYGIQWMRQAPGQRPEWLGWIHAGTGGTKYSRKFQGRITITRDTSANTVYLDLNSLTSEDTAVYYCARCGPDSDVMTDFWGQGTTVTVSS"}}}
{"protein": "Ribonuclease A (Type II-A) from bovine pancreas (protein) KETAAAKFERQHMDSSTSAASSSNYCNQMMKSRNLTKDRCKPVNTFVHESLADVQAVCSQKNVACKNGQTNCYQSYSTMSITDCRETGSSKYPNCAYKTTQANKHIIVACEGNPYVPVHFDASV", "values": [{"measurement": "cleavage of HeLa total RNA by RNase A (0.7 µg/ml), agarose gel, Fv antibody at 10 µM", "setting": "[1]", "result": "it was observed that the cleavage reaction of RNase A was completely inhibited"}, {"measurement": "stated: RNase A removed from the solution by Fv-2-beads (RNA cleavage read on an agarose gel)", "setting": "[1]", "result": "After Fv-Bead treatment: all four lanes (+ to ++++, + : 250 ng Fv-2-bead, RNase A 10 ng) keep both RNA bands (in the dashed box at about 1000-1500 bp and near 600 bp) like lane 0, marked 'RNA cleavage inhibition'. Before treatment (no bead) the four RNase A lanes have no band in the box."}, {"measurement": "cleavage of HeLa total RNA by RNase A (0.7 µg/ml), agarose gel, Fv antibody at 10 µM", "setting": "[2]", "result": "it was observed that the cleavage reaction of RNase A was completely inhibited"}, {"measurement": "cleavage of HeLa total RNA by RNase A (0.7 µg/ml), agarose gel, Fv antibody at 10 µM", "setting": "[3]", "result": "it was observed that the cleavage reaction of RNase A was completely inhibited"}, {"measurement": "stated: RNase A removed from the solution by Fv-1-beads (RNA cleavage read on an agarose gel)", "setting": "[3]", "result": "After Fv-Bead treatment: all four lanes (+ to ++++, + : 250 ng Fv-1-bead, RNase A 10 ng) keep faint RNA in the dashed box at about 1000-1500 bp like lane 0, marked 'RNA cleavage inhibition'. Before treatment (no bead) the four RNase A lanes show only a smear near 250 bp."}]}
